Data from patent publication US20140107315A1.

Assays:
[1] = biological target: human immunoglobulin G drug separated from human plasma (Gammagard, Baxter) (human); test: SPR (Biacore 3000), human IgG immobilized on CM5 chip, ligand as analyte, 25 C, pH 7.4, 1:1 model
[2] = biological target: human immunoglobulin G drug separated from human plasma (Gammagard, Baxter) (human); test: SPR (Biacore) as in Example 3, human IgG immobilized on chip, 1:1 model
[3] = biological target: human IgG (Gamma globulin, Nichiyaku) (human); test: affinity chromatography, ligand immobilized on HiTrap NHS-activated HP (6.5 mg/mL-gel), 1 mg/mL human IgG at 1.9 mL/min, 5% breakthrough

Row | Ka [1] | Ka [2] | 5% antibody dBC [3] | Substance
1 | 4.8e+07 M⁻¹ |  |  | C-K04R/K07R/G29A/K35R/K42R/K49R/K50R/K58G.1d (from pGEX-2T, Example 2) (designed binder)
2 | 2.7e+07 M⁻¹ |  |  | C-K04R/K07E/G29A/K35R/K42R/K49R/K50H/K58G.1d (designed binder)
3 | 3.3e+07 M⁻¹ |  |  | C-K04R/K07R/G29A/K35R/K42R/K49Q/K50R/K58G.1d (designed binder)
4 |  | 2.2e+07 M⁻¹ | 25.7 mg/mL-gel | C-K04R/K07R/G29A/K35R/K42R/K49R/K50R/K58G.1d with Ser-Lys added at the C terminal (Brevibacillus, Example 4) (designed binder)
5 | 1.3e+07 M⁻¹ |  |  | C-K04R/K07D/G29A/K35R/K42R/K49R/K50H/K58G.1d (designed binder)
6 | 1.1e+07 M⁻¹ |  |  | C-K04R/K07E/G29A/K35R/K42R/K49R/K50R/K58G.1d (designed binder)
